Assays:
Assay in all cases: IP/MS, LZTR1 wild type-FLAG, U87
RTTN = RTTN (human, UniProt Q86VV8 1-2226, limits assumed)
Summary of the method: (§1)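 Read-out: spectral counts from LC-MS/MS (Orbitrap Fusion) after MaxQuant identification. Variable modifications were Met oxidation, protein N-terminal acetylation and N/Q deamidation.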

SKIV2L = SKIV2L (human, UniProt Q15477 1-1246)
Summary of the method: as §1

INTS1 = INTS1 (human, UniProt Q8N201 1-2190)
Summary of the method: as §1

PARP10 = target: T1, PARP10 (human, UniProt Q53GL7 1-1025)
T1 sequence (looked up): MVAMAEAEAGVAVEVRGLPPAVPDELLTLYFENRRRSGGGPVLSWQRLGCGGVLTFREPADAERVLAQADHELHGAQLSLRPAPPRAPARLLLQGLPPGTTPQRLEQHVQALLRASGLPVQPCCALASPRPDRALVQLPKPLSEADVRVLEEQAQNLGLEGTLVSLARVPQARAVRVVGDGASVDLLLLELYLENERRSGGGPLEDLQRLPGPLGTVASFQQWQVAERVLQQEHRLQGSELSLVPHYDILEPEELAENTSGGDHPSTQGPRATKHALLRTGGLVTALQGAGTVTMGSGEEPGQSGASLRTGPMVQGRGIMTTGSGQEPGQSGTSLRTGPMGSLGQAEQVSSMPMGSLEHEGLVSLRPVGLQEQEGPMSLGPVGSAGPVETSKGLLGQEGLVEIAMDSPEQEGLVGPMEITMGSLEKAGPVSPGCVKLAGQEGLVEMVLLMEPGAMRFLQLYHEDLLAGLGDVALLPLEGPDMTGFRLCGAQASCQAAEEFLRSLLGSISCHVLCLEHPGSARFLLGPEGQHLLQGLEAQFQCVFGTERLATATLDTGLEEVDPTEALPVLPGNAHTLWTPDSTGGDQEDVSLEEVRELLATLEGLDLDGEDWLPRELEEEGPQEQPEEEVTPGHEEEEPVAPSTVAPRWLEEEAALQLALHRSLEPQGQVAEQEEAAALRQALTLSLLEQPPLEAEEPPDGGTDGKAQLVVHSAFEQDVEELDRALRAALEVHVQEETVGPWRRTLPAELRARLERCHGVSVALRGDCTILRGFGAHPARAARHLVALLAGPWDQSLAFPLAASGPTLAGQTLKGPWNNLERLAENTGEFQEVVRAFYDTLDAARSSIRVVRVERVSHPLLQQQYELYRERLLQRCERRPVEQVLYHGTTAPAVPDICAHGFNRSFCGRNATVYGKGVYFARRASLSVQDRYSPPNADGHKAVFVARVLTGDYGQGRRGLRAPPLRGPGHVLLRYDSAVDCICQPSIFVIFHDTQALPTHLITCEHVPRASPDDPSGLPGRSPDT
Summary of the method: as §1

INTS1, sequence (Q8N201 whole entry): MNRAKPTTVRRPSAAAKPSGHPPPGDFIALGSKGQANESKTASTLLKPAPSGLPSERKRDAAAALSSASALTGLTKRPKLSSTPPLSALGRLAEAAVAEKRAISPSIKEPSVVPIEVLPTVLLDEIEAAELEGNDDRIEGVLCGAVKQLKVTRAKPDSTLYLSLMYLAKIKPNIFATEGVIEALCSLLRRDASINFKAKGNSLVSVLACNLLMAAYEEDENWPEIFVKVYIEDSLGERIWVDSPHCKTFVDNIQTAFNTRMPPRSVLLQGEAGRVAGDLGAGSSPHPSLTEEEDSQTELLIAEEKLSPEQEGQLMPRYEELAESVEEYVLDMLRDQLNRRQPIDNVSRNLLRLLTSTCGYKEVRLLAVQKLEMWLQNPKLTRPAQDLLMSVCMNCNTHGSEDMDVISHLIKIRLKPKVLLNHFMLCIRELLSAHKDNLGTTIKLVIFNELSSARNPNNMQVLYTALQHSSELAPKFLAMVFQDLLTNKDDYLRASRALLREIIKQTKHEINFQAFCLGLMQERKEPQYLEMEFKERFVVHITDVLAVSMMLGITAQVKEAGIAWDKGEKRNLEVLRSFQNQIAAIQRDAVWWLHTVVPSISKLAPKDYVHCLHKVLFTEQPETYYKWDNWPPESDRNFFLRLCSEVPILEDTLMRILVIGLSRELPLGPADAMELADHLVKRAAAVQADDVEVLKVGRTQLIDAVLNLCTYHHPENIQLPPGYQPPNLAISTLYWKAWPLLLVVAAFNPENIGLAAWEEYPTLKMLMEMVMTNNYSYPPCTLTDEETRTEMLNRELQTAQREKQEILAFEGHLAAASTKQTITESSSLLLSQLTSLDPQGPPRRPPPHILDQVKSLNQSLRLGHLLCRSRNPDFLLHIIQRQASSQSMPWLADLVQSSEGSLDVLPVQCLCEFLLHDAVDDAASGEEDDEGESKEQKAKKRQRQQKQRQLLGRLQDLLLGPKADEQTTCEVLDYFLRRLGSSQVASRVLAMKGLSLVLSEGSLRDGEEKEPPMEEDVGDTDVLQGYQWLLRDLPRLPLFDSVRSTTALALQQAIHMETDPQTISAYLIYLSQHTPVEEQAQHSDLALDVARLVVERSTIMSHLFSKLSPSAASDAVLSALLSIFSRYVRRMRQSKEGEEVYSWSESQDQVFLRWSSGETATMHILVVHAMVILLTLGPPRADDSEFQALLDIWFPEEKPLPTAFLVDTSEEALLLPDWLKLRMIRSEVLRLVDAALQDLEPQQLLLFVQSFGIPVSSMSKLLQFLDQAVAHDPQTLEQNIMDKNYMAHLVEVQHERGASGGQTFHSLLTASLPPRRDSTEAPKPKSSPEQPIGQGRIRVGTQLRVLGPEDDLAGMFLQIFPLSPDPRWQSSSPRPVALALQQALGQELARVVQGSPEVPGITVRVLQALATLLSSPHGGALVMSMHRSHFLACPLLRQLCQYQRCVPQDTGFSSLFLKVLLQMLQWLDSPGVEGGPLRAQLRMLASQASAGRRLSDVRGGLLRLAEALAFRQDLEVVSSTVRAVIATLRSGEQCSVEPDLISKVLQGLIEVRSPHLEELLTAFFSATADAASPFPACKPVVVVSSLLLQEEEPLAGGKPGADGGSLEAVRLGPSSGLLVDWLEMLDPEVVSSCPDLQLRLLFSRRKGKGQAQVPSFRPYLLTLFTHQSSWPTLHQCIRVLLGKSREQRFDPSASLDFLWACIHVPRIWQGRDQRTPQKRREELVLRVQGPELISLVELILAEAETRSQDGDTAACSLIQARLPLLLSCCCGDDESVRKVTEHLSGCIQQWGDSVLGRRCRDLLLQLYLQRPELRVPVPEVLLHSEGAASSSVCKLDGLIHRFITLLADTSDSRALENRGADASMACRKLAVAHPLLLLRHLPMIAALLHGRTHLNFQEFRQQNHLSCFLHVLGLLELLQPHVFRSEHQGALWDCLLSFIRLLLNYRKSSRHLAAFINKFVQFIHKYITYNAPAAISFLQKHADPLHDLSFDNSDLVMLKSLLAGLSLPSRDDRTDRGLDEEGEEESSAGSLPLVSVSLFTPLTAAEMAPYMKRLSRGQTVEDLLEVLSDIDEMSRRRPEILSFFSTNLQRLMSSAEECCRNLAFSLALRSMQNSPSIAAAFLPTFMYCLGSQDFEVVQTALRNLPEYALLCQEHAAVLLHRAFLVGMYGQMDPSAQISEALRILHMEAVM
RTTN, sequence (Q86VV8 whole entry, the tested form may be a part): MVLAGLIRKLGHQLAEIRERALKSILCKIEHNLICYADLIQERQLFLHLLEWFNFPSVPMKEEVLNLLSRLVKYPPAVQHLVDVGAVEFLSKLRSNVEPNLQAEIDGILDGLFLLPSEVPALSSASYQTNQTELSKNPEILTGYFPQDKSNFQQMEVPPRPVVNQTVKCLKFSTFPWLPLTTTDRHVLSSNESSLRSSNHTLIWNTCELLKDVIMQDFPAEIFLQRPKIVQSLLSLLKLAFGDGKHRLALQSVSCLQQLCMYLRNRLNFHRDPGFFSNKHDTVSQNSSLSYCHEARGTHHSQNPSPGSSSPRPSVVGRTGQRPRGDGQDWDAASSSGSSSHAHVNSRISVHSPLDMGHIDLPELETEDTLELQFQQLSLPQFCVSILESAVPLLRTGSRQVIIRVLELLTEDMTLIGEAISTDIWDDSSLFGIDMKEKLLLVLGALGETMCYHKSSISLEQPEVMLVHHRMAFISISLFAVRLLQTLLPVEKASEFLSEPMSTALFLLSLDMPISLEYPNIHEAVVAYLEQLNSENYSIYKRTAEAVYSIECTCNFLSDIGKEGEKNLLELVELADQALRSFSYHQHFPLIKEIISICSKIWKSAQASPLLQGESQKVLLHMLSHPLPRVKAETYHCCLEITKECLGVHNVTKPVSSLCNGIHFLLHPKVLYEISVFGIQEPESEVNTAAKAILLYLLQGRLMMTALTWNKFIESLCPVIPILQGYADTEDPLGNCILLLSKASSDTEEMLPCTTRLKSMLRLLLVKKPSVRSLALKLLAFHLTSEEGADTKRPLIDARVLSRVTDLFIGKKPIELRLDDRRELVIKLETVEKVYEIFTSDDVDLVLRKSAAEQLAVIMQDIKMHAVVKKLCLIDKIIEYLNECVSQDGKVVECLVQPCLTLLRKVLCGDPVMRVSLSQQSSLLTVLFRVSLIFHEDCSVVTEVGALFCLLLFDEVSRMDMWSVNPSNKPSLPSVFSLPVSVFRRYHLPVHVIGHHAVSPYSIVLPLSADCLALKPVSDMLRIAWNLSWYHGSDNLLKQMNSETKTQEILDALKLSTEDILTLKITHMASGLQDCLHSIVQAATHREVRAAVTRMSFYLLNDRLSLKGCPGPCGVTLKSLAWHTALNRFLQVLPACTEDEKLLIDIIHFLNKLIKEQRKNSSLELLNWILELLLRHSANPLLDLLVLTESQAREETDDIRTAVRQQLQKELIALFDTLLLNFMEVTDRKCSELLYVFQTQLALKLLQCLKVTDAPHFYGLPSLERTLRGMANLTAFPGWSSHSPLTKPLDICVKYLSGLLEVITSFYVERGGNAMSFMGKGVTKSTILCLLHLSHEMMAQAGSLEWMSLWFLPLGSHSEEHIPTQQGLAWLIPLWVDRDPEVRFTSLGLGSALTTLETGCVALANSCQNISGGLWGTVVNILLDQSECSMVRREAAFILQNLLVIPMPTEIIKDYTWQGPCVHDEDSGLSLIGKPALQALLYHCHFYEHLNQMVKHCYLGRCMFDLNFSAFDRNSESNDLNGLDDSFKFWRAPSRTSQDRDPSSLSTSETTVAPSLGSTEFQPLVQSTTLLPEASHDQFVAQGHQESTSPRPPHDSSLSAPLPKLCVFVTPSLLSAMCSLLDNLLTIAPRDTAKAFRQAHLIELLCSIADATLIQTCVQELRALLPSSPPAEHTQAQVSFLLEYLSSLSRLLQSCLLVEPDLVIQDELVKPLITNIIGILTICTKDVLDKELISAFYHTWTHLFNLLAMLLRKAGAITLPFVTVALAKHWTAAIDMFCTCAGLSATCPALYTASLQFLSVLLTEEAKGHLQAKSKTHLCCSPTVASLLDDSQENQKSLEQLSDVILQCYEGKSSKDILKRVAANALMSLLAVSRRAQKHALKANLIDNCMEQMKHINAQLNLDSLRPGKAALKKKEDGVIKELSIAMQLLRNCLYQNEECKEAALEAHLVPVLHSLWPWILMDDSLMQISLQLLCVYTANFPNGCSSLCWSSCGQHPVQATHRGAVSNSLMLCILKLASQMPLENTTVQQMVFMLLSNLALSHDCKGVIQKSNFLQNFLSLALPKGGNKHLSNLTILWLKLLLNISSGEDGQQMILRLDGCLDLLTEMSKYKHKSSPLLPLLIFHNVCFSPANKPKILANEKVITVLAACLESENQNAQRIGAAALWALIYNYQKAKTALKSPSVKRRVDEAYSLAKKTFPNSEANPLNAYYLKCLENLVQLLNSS

binding result (RTTN): binds
binding result (SKIV2L): binds
binding result (INTS1): binds
binding result (PARP10): binds
B1: LZTR1-FLAG (other, human, UniProt Q8N653 1-840, looked up)
chain: MAGPGSTGGQIGAAALAGGARSKVAPSVDFDHSCSDSVEYLTLNFGPFETVHRWRRLPPCDEFVGARRSKHTVVAYKDAIYVFGGDNGKTMLNDLLRFDVKDCSWCRAFTTGTPPAPRYHHSAVVYGSSMFVFGGYTGDIYSNSNLKNKNDLFEYKFATGQWTEWKIEGRLPVARSAHGATVYSDKLWIFAGYDGNARLNDMWTIGLQDRELTCWEEVAQSGEIPPSCCNFPVAVCRDKMFVFSGQSGAKITNNLFQFEFKDKTWTRIPTEHLLRGSPPPPQRRYGHTMVAFDRHLYVFGGAADNTLPNELHCYDVDFQTWEVVQPSSDSEVGGAEVPERACASEEVPTLTYEERVGFKKSRDVFGLDFGTTSAKQPTQPASELPSGRLFHAAAVISDAMYIFGGTVDNNIRSGEMYRFQFSCYPKCTLHEDYGRLWESRQFCDVEFVLGEKEECVQGHVAIVTARSRWLRRKITQARERLAQKLEQEAAPVPREAPGVAAGGARPPLLHVAIREAEARPFEVLMQFLYTDKIKYPRKGHVEDVLLIMDVYKLALSFQLCRLEQLCRQYIEASVDLQNVLVVCESAARLQLSQLKEHCLNFVVKESHFNQVIMMKEFERLSSPLIVEIVRRKQQPPPRTPLDQPVDIGTSLIQDMKAYLEGAGAEFCDITLLLDGHPRPAHKAILAARSSYFEAMFRSFMPEDGQVNISIGEMVPSRQAFESMLRYIYYGEVNMPPEDSLYLFAAPYYYGFYNNRLQAYCKQNLEMNVTVQNVLQILEAADKTQALDMKRHCLHIIVHQFTKVSKLPTLRSLSQQLLLDIIDSLASHISDKQCAELGADI
notes: Expressed in HEK 293T, HeLa or U87 cells; used as cell lysate; also called LZTR1 wild type-FLAG; LZTR1 WT; not shown: FLAG tag at the C-terminus

Reference: patent US20250262210A1 (TRUSTEES OF COLUMBIA UNIVERSITY IN THE CITY OF NEW YORK, published 2025)
